Reference: article PMC11066036

Target: T1, HPK1 intact citron homology domain fragment (C428-E821), untagged, Q92918-2
T1 chain: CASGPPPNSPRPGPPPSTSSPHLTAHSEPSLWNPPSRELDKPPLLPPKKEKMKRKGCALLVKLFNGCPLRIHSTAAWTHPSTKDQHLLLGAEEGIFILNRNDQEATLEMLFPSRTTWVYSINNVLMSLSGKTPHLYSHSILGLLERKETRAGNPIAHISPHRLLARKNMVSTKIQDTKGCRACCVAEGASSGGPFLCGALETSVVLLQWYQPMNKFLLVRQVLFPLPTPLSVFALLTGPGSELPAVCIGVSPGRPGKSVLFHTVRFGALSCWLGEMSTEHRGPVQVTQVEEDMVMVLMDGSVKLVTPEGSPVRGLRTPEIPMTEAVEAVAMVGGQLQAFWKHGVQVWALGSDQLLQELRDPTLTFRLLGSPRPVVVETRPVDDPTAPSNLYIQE
Assay: SPR
Conditions: chain shown with the change; left plot; plateau of the last (highest) of five successive CHD injections, about 800-900 s; CHD concentrations not given; read off a plot

B1: HPK1 kinase domain wild type (D2-N293) S171A (protein)
chain: DVVDPDIFNRDPRDHYDLLQRLGGGTYGEVFKARDKVSGDLVALKMVKMEPDDDVSTLQKEILILKTCRHANIVAYHGSYLWLQKLWICMEFCGAGSLQDIYQVTGSLSELQISYVCREVLQGLAYLHSQKKIHRDIKGANILINDAGEVRLADFGISAQIGATLARRLAFIGTPYWMAPEVAAVALKGGYNELCDIWSLGITAIELAELQPPLFDVHPLRVLFLMTKSGYQPPRLKEKGKWSAAFHNFIKVTLTKSPKKRPSATKMLSHQLVSQPGLNRGLILDLLDKLKN
- response (Response Units): 42
